Measurements reported in paper PMC4923902 (Scientific Reports, 2016).

Experiments:
[1] = biological target: T1, phosphorylated opsin (bovine, UniProt P02699 1-348, phosphorylated on the C-terminus by endogenous GRK1 (sites not given); no retinal (apo-protein)); experiment: site-directed steady-state fluorescence; 1 uM labelled arrestin with 6 uM Ops-P in ROS membranes, 50 mM HEPES pH 8, low salt, 20 °C; conditions: one partner purified
T1 construct: bovine opsin (apo-protein of rhodopsin), endogenous in ROS membranes; in isolated, washed ROS disc membranes, not on whole cells; also called Ops-P; OpsP
T1 sequence (P02699 whole entry): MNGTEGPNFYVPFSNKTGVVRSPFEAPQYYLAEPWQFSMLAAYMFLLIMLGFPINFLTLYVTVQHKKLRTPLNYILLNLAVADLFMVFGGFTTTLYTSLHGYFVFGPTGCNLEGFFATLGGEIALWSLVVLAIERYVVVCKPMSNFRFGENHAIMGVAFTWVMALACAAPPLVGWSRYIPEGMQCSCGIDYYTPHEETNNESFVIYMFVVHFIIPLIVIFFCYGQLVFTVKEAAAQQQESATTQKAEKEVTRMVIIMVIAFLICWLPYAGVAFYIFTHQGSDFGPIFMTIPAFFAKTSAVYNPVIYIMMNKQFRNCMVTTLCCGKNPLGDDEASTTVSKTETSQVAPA

[2] = biological target: T1, phosphorylated opsin; experiment: site-directed steady-state fluorescence; 1 uM labelled arrestin with 6 uM receptor in ROS membranes, 50 mM HEPES pH 7, low salt, 20 °C; conditions: one partner purified

B1: arrestin I72NBD (natural protein, bovine, UniProt P08168 1-404, looked up)
chain: MKANKPAPNHVIFKKISRDKSVTIYLGKRDYIDHVERVEPVDGVVLVDPELVKGKRVYVSLTAAFRYGQEDCDVMGLSFRRDLYFSQVQVFPPVGASGATTRLQESLIKKLGANTYPFLLTFPDYLPSSVMLQPAPQDVGKSAGVDFEIKAFATHSTDVEEDKIPKKSSVRLLIRKVQHAPRDMGPQPRAEASFQFFMSDKPLRLAVSLSKEIYYHGEPIPVTVAVTNSTEKTVKKIKVLVEQVTNVVLYSSDYYIKTVAAEEAQEKVPPNSSLTKTLTLVPLLANNRERRGIALDGKIKHEDTNLASSTIIKEGIDKTVMGILVSYQIKVKLTVSGLLGELTSSEVATEVPFRLMHPQPEDPDTAKESFQDENFVFEEFARQNLKDAGEYKEEKTDQEAAMDE
modifications: NBD fluorophore (IANBD) on the cysteine at site 72
notes: recombinant bovine arrestin-1 mutant; also called arrestin-1 C63A, C128S, C143A, W194F, I72C labelled with IANBD; source: E. coli, purified
[1]
  fluorescence increase relative to that with Meta II-P: ~18%
[2]
  fluorescence increase relative to that with Meta II-P: ~45%

B2: arrestin I299B/L173W (natural protein, bovine, UniProt P08168 1-404, looked up)
chain: MKANKPAPNHVIFKKISRDKSVTIYLGKRDYIDHVERVEPVDGVVLVDPELVKGKRVYVSLTAAFRYGQEDIDVMGLSFRRDLYFSQVQVFPPVGASGATTRLQESLIKKLGANTYPFLLTFPDYLPSSVMLQPAPQDVGKSAGVDFEIKAFATHSTDVEEDKIPKKSSVRLWIRKVQHAPRDMGPQPRAEASFQFFMSDKPLRLAVSLSKEIYYHGEPIPVTVAVTNSTEKTVKKIKVLVEQVTNVVLYSSDYYIKTVAAEEAQEKVPPNSSLTKTLTLVPLLANNRERRGIALDGKCKHEDTNLASSTIIKEGIDKTVMGILVSYQIKVKLTVSGLLGELTSSEVATEVPFRLMHPQPEDPDTAKESFQDENFVFEEFARQNLKDAGEYKEEKTDQEAAMDE
modifications: bimane fluorophore (monobromobimane) on the cysteine at site 299
notes: recombinant bovine arrestin-1 mutant; also called arrestin-1 C63A, C128S, C143A, W194F, L173W, I299C labelled with monobromobimane; source: E. coli, purified
[1]
  fluorescence change relative to that with Meta II-P: ~38%
